The supplement of paper PMC9112550, “Optimization of the antimicrobial peptide Bac7 by deep mutational scanning” (BMC Biology, 2022)

system: Escherichia coli TOP10; experiment: shrunken log2 fold change of peptide-encoding DNA abundance (4.5 h post-induction vs induction); higher = less antimicrobial activity (less host growth inhibition); details: time post-induction: 4.5 h; library: site-saturation at positions 5, 18, 19, 20
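Note: peptides expressed intracellularly from a pBAD plasmid library in pooled LB shake-flask culture, induced with 0.3% L-arabinose, DNA abundance read by NGS, three biological replicates, DESeq2 with apeglm shrinkage.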

Sequence | shrunken log2 fold change
RRIRGRPPRLPRPRPRPNCMPRP | 0.196
RRIRRRPPRLPRPRPRPERRPRP | 0.418
RRIRLRPPRLPRPRPRPFSCPRP | 0.0222
RRIRYRPPRLPRPRPRPHKDPRP | -0.428
RRIRRRPPRLPRPRPRPRKYPRP | -0.33
RRIRARPPRLPRPRPRPNWPPRP | 0.0205
RRIRQRPPRLPRPRPRPNPAPRP | 0.17
RRIRRRPPRLPRPRPRPDLPPRP | 0.0159
RRIRIRPPRLPRPRPRPAKDPRP | -0.268
RRIRCRPPRLPRPRPRPALPPRP | 0.143
RRIRTRPPRLPRPRPRPAAEPRP | 0.351
RRIRSRPPRLPRPRPRPPRSPRP | 0.483
RRIRQRPPRLPRPRPRPCYDPRP | -0.357
RRIRSRPPRLPRPRPRPRKGPRP | 0.208
RRIRQRPPRLPRPRPRPWFDPRP | -0.253
RRIRIRPPRLPRPRPRPKSDPRP | -0.222
RRIRFRPPRLPRPRPRPYSIPRP | -0.186
RRIRIRPPRLPRPRPRPNSIPRP | -0.366
RRIRQRPPRLPRPRPRPFSCPRP | -0.00804
RRIRGRPPRLPRPRPRPVRPPRP | 0.994
RRIRTRPPRLPRPRPRPEARPRP | 0.552
RRIRDRPPRLPRPRPRPHDPPRP | -0.147

Sequence | shrunken log2 fold change
RRIRKRPPRLPRPRPRPKNWPRP | 0.474
RRIRARPPRLPRPRPRPSPLPRP | 0.238
RRIRVRPPRLPRPRPRPEKLPRP | 0.0465
RRIRVRPPRLPRPRPRPQPFPRP | -0.0258
RRIRVRPPRLPRPRPRPVIYPRP | -0.39
RRIRDRPPRLPRPRPRPHCVPRP | 0.017
RRIRCRPPRLPRPRPRPWNPPRP | 0.228
RRIRDRPPRLPRPRPRPSYTPRP | -0.302
RRIRIRPPRLPRPRPRPPYHPRP | -0.652
RRIRYRPPRLPRPRPRPLDCPRP | -0.068
RRIRIRPPRLPRPRPRPKGHPRP | 0.0764
RRIRTRPPRLPRPRPRPIYAPRP | 0.0866
RRIRNRPPRLPRPRPRPPKTPRP | -0.103
RRIRARPPRLPRPRPRPYPDPRP | -0.0126
RRIRDRPPRLPRPRPRPYPCPRP | -0.112
RRIRIRPPRLPRPRPRPLGAPRP | 0.241
RRIRWRPPRLPRPRPRPFDMPRP | -0.105
RRIRNRPPRLPRPRPRPSFGPRP | 0.00557
RRIRMRPPRLPRPRPRPHSLPRP | -0.0589
RRIRSRPPRLPRPRPRPPTQPRP | 0.356
RRIRWRPPRLPRPRPRPPPLPRP | 1.32
RRIRGRPPRLPRPRPRPPLDPRP | 0.989

Sequence | shrunken log2 fold change
RRIRVRPPRLPRPRPRPCMMPRP | -0.33
RRIRSRPPRLPRPRPRPTQQPRP | 0.138
RRIRGRPPRLPRPRPRPIQIPRP | -0.0799
RRIRWRPPRLPRPRPRPNGLPRP | 0.145
RRIRIRPPRLPRPRPRPNGCPRP | -0.0792
RRIRIRPPRLPRPRPRPNIYPRP | -0.111
RRIRNRPPRLPRPRPRPNANPRP | -0.199
RRIRHRPPRLPRPRPRPMHWPRP | -0.134
RRIRIRPPRLPRPRPRPIRDPRP | -0.0759
RRIRARPPRLPRPRPRPIPEPRP | 0.0265
RRIRSRPPRLPRPRPRPFGSPRP | -0.178
RRIRVRPPRLPRPRPRPITVPRP | -1.15
RRIRHRPPRLPRPRPRPFLVPRP | -0.106
RRIRERPPRLPRPRPRPCCGPRP | -0.18
RRIRLRPPRLPRPRPRPTALPRP | -0.134
RRIRKRPPRLPRPRPRPFMWPRP | -0.078
RRIRCRPPRLPRPRPRPVKGPRP | -0.261
RRIRARPPRLPRPRPRPVDCPRP | 0.26
RRIRPRPPRLPRPRPRPYRRPRP | -0.198
RRIRVRPPRLPRPRPRPSEGPRP | -0.116
RRIRHRPPRLPRPRPRPIHVPRP | 0.0364
RRIRCRPPRLPRPRPRPHVWPRP | -0.185

Sequence | shrunken log2 fold change
RRIRWRPPRLPRPRPRPYPRPRP | -0.632
RRIRGRPPRLPRPRPRPDCQPRP | 0.662
RRIRDRPPRLPRPRPRPHAEPRP | 0.0887
RRIRLRPPRLPRPRPRPFTIPRP | -0.174
RRIRNRPPRLPRPRPRPASGPRP | 0.247
RRIRSRPPRLPRPRPRPHPAPRP | -0.177
RRIRDRPPRLPRPRPRPYPLPRP | 0.215
RRIRARPPRLPRPRPRPMHMPRP | -0.0568
RRIRMRPPRLPRPRPRPGHLPRP | 0.0373
RRIRLRPPRLPRPRPRPYNDPRP | -0.0858
RRIRARPPRLPRPRPRPEWIPRP | 0.129
RRIRVRPPRLPRPRPRPWTMPRP | -0.134
RRIRCRPPRLPRPRPRPCDRPRP | -0.351
RRIRARPPRLPRPRPRPVVTPRP | 0.254
RRIRRRPPRLPRPRPRPLMCPRP | -0.13
RRIRDRPPRLPRPRPRPYVWPRP | -0.579
RRIRLRPPRLPRPRPRPPPLPRP | 1.12
RRIRIRPPRLPRPRPRPQDGPRP | 0.0409
RRIRWRPPRLPRPRPRPQLVPRP | 0.144
RRIRRRPPRLPRPRPRPSMQPRP | 0.404
RRIRVRPPRLPRPRPRPVFYPRP | -0.178
RRIRPRPPRLPRPRPRPDPYPRP | 0.0668

Sequence | shrunken log2 fold change
RRIRPRPPRLPRPRPRPKNSPRP | -0.144
RRIRGRPPRLPRPRPRPKGWPRP | 1.46
RRIRFRPPRLPRPRPRPSGHPRP | -0.212
RRIRKRPPRLPRPRPRPECQPRP | 0.57
RRIRRRPPRLPRPRPRPHQQPRP | -0.0551
RRIRFRPPRLPRPRPRPCMLPRP | -0.591
RRIRNRPPRLPRPRPRPWAVPRP | 0.0374
RRIRDRPPRLPRPRPRPVKDPRP | -0.173
RRIRARPPRLPRPRPRPRKTPRP | 0.29
RRIRNRPPRLPRPRPRPVMKPRP | 0.0939
RRIRLRPPRLPRPRPRPGMYPRP | -0.115
RRIRFRPPRLPRPRPRPWQFPRP | -0.333
RRIRIRPPRLPRPRPRPRPMPRP | 0.129
RRIRNRPPRLPRPRPRPWPLPRP | -0.0801
RRIRRRPPRLPRPRPRPKWSPRP | 0.457
RRIRTRPPRLPRPRPRPRVVPRP | 1.87
RRIRQRPPRLPRPRPRPMITPRP | -0.166
RRIRCRPPRLPRPRPRPALAPRP | 0.475
RRIRWRPPRLPRPRPRPYAMPRP | 0.0576
RRIRSRPPRLPRPRPRPPCPPRP | 0.319
RRIRPRPPRLPRPRPRPNFDPRP | -0.0128
